Test results as given in the supplement of paper PMC5998384.

Assays:
HeLa Kyoto [1] = assay: melting temperature (median over replicates), in situ; higher = more thermally stable
HeLa Kyoto [2] = assay: solubility change mitosis vs G1/S (difference of NP-40 vs SDS log2 ratios) (log2 ratio difference); higher = more soluble in mitosis
HeLa Kyoto [3] = assay: thermal stability score vs G1/S (z-score of summed log2 fold changes over temperatures); higher = more thermally stable than in G1/S
HeLa Kyoto [4] = assay: solubility in G1/S (NP-40 vs SDS abundance) (log2 ratio); higher = more soluble; settings: cell cycle stage: G1/S
[5] = cell cycle stage: early G1 (4.5 h after nocodazole release)
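Wherever melting temperature (median over replicates), in situ is given: HeLa Kyoto cells synchronized by double thymidine or nocodazole block, proteins quantified by TMT10plex mass spectrometry, three independent biological replicates.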
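Wherever solubility change mitosis vs G1/S (difference of NP-40 vs SDS log2 ratios) is given: synchronized HeLa Kyoto cells (double thymidine block for G1/S, nocodazole release for mitosis), protein amounts in NP-40 versus SDS lysates quantified by mass spectrometry, three biological replicates.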
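Wherever solubility in G1/S (NP-40 vs SDS abundance) is given: HeLa Kyoto cells arrested at G1/S by double thymidine block, proteins quantified by TMT10plex mass spectrometry in mild NP-40 versus SDS extracts, three biological replicates.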
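Wherever thermal stability score vs G1/S (z-score of summed log2 fold changes over temperatures) is given: synchronized HeLa Kyoto cells, proteins quantified by TMT10plex mass spectrometry, three biological replicates, mitosis taken 0.5 h after nocodazole release, G1/S directly after double thymidine block.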

Substance	melting temperature (HeLa Kyoto [1]; cell cycle stage: G1/S)	melting temperature (HeLa Kyoto [1]; cell cycle stage: mitosis)	solubility change mitosis (log2) (HeLa Kyoto [2])	thermal stability score (HeLa Kyoto [3]; [5])	thermal stability score (HeLa Kyoto [3]; cell cycle stage: mitosis)	solubility in G1/S (log2) (HeLa Kyoto [4])
MNAAASSYPMASLYVGDLHSDVTEAMLYEKFSPAGPVLSIRVCRDMITRRSLGYAYVNFQQPADAERALDTMNFDVIKGKPIRIMWSQRDPSLRKSGVGNVFIKNLDKSIDNKALYDTFSAFGNILSCKVVCDENGSKGYAFVHFETQEAADKAIEKMNGMLLNDRKVFVGRFKSRKEREAELGAKAKEFTNVYIKNFGEEVDDESLKELFSQFGKTLSVKVMRDPNGKSKGFGFVSYEKHEDANKAVEEMNGKEISGKIIFVGRAQKKVERQAELKRKFEQLKQERISRYQGVNLYIKNLDDTIDDEKLRKEFSPFGSITSAKVMLEDGRSKGFGFVCFSSPEEATKAVTEMNGRIVGSKPLYVALAQRKEERKAHLTNQYMQRVAGMRALPANAILNQFQPAAGGYFVPAVPQAQGRPPYYTPNQLAQMRPNPRWQQGGRPQGFQGMPSAIRQSGPRPTLRHLAPTGSECPDRLAMDFGGAGAAQQGLTDSCQSGGVPTAVQNLAPRAAVAAAAPRAVAPYKYASSVRSPHPAIQPLQAPQPAVHVQGQEPLTASMLAAAPPQEQKQMLGERLFPLIQTMHSNLAGKITGMLLEIDNSELLHMLESPESLRSKVDEAVAVLQAHHAKKEAAQKVGAVAAATS [PABPC4]	50.3 °C	49.6 °C	0.0456	-1.92	-1.27	0.0374
MPVQLSEHPEWNESMHSLRISVGGLPVLASMTKAADPRFRPRWKVILTFFVGAAILWLLCSHRPAPGRPPTHNAHNWRLGQAPANWYNDTYPLSPPQRTPAGIRYRIAVIADLDTESRAQEENTWFSYLKKGYLTLSDSGDKVAVEWDKDHGVLESHLAEKGRGMELSDLIVFNGKLYSVDDRTGVVYQIEGSKAVPWVILSDGDGTVEKGFKAEWLAVKDERLYVGGLGKEWTTTTGDVVNENPEWVKVVGYKGSVDHENWVSNYNALRAAAGIQPPGYLIHESACWSDTLQRWFFLPRRASQERYSEKDDERKGANLLLSASPDFGDIAVSHVGAVVPTHGFSSFKFIPNTDDQIIVALKSEEDSGRVASYIMAFTLDGRFLLPETKIGSVKYEGIEFI [CANT1]	55.2 °C	54.6 °C	-0.137	-0.646	-1.1	0.0305
MSSTQFNKGPSYGLSAEVKNRLLSKYDPQKEAELRTWIEGLTGLSIGPDFQKGLKDGTILCTLMNKLQPGSVPKINRSMQNWHQLENLSNFIKAMVSYGMNPVDLFEANDLFESGNMTQVQVSLLALAGKAKTKGLQSGVDIGVKYSEKQERNFDDATMKAGQCVIGLQMGTNKCASQSGMTAYGTRRHLYDPKNHILPPMDHSTISLQMGTNKCASQVGMTAPGTRRHIYDTKLGTDKCDNSSMSLQMGYTQGANQSGQVFGLGRQIYDPKYCPQGTVADGAPSGTGDCPDPGEVPEYPPYYQEEAGY [CNN2]	48.8 °C	50.3 °C	-0.0021	1.28	1.97	0.456
CELSR2	56.8 °C	54.6 °C	-0.142	-4.5	-5.14	0.141
MAAAVVLAAGLRAARRAVAATGVRGGQVRGAAGVTDGNEVAKAQQATPGGAAPTIFSRILDKSLPADILYEDQQCLVFRDVAPQAPVHFLVIPKKPIPRISQAEEEDQQLLGHLLLVAKQTAKAEGLGDGYRLVINDGKLGAQSVYHLHIHVLGGRQLQWPPG [HINT2]	54.9 °C	54.9 °C	-0.0342	-0.929	-2.12	0.565
MDSDDEMVEEAVEGHLDDDGLPHGFCTVTYSSTDRFEGNFVHGEKNGRGKFFFFDGSTLEGYYVDDALQGQGVYTYEDGGVLQGTYVDGELNGPAQEYDTDGRLIFKGQYKDNIRHGVCWIYYPDGGSLVGEVNEDGEMTGEKIAYVYPDERTALYGKFIDGEMIEGKLATLMSTEEGRPHFELMPGNSVYHFDKSTSSCISTNALLPDPYESERVYVAESLISSAGEGLFSKVAVGPNTVMSFYNGVRITHQEVDSRDWALNGNTLSLDEETVIDVPEPYNHVSKYCASLGHKANHSFTPNCIYDMFVHPRFGPIKCIRTLRAVEADEELTVAYGYDHSPPGKSGPEAPEWYQVELKAFQATQQK [SETD7]	48.7 °C	50.5 °C	-0.119	1.42	2.54	-0.127
MAETAAGVGRFKTNYAVERKIEPFYKGGKAQLDQTGQHLFCVCGTRVNILEVASGAVLRSLEQEDQEDITAFDLSPDNEVLVTASRALLLAQWAWQEGSVTRLWKAIHTAPVATMAFDPTSTLLATGGCDGAVRVWDIVRHYGTHHFRGSPGVVHLVAFHPDPTRLLLFSSATDAAIRVWSLQDRSCLAVLTAHYSAVTSLAFSADGHTMLSSGRDKICIIWDLQSCQATRTVPVFESVEAAVLLPEEPVSQLGVKSPGLYFLTAGDQGTLRVWEAASGQCVYTQAQPPGPGQELTHCTLAHTAGVVLTATADHNLLLYEARSLRLQKQFAGYSEEVLDVRFLGPEDSHVVVASNSPCLKVFELQTSACQILHGHTDIVLALDVFRKGWLFASCAKDQSVRIWRMNKAGQVMCVAQGSGHTHSVGTVCCSRLKESFLVTGSQDCTVKLWPLPKALLSKNTAPDNGPILLQAQTTQRCHDKDINSVAIAPNDKLLATGSQDRTAKLWALPQCQLLGVFSGHRRGLWCVQFSPMDQVLATASADGTIKLWALQDFSCLKTFEGHDASVLKVAFVSRGTQLLSSGSDGLVKLWTIKNNECVRTLDAHEDKVWGLHCSRLDDHALTGASDSRVILWKDVTEAEQAEEQARQEEQVVRQQELDNLLHEKRYLRALGLAISLDRPHTVLTVIQAIRRDPEACEKLEATMLRLRRDQKEALLRFCVTWNTNSRHCHEAQAVLGVLLRREAPEELLAYEGVRAALEALLPYTERHFQRLSRTLQAAAFLDFLWHNMKLPVPAAAPTPWETHKGALP [TBL3]	50.6 °C	51.3 °C	0.233	1.58	-0.746	-0.936
MEGNRDEAEKCVEIAREALNAGNREKAQRFLQKAEKLYPLPSARALLEIIMKNGSTAGNSPHCRKPSGSGDQSKPNCTKDSTSGSGEGGKGYTKDQVDGVLSINKCKNYYEVLGVTKDAGDEDLKKAYRKLALKFHPDKNHAPGATDAFKKIGNAYAVLSNPEKRKQYDLTGNEEQACNHQNNGRFNFHRGCEADITPEDLFNIFFGGGFPSGSVHSFSNGRAGYSQQHQHRHSGHEREEERGDGGFSVFIQLMPIIVLILVSLLSQLMVSNPPYSLYPRSGTGQTIKMQTENLGVVYYVNKDFKNEYKGMLLQKVEKSVEEDYVTNIRNNCWKERQQKTDMQYAAKVYRDDRLRRKADALSMDNCKELERLTSLYKGG [DNAJB14]	51.3 °C	51.9 °C	-0.15	-1.51	0.131	0.511
MTDDKDVLRDVWFGRIPTCFTLYQDEITEREAEPYYLLLPRVSYLTLVTDKVKKHFQKVMRQEDISEIWFEYEGTPLKWHYPIGLLFDLLASSSALPWNITVHFKSFPEKDLLHCPSKDAIEAHFMSCMKEADALKHKSQVINEMQKKDHKQLWMGLQNDRFDQFWAINRKLMEYPAEENGFRYIPFRIYQTTTERPFIQKLFRPVAADGQLHTLGDLLKEVCPSAIDPEDGEKKNQVMIHGIEPMLETPLQWLSEHLSYPDNFLHISIIPQPTD [ATG5]	54.2 °C	53.6 °C	0.0407	-0.587	0.0242	0.406
MESPASSQPASMPQSKGKSKRKKDLRISCMSKPPAPNPTPPRNLDSRTFITIGDRNFEVEADDLVTISELGRGAYGVVEKVRHAQSGTIMAVKRIRATVNSQEQKRLLMDLDINMRTVDCFYTVTFYGALFREGDVWICMELMDTSLDKFYRKVLDKNMTIPEDILGEIAVSIVRALEHLHSKLSVIHRDVKPSNVLINKEGHVKMCDFGISGYLVDSVAKTMDAGCKPYMAPERINPELNQKGYNVKSDVWSLGITMIEMAILRFPYESWGTPFQQLKQVVEEPSPQLPADRFSPEFVDFTAQCLRKNPAERMSYLELMEHPFFTLHKTKKTDIAAFVKEILGEDS [MAP2K3]	48.8 °C	50.1 °C	-0.112	1.81	2.08	-0.00226
MCGIFAYLNYHVPRTRREILETLIKGLQRLEYRGYDSAGVGFDGGNDKDWEANACKIQLIKKKGKVKALDEEVHKQQDMDLDIEFDVHLGIAHTRWATHGEPSPVNSHPQRSDKNNEFIVIHNGIITNYKDLKKFLESKGYDFESETDTETIAKLVKYMYDNRESQDTSFTTLVERVIQQLEGAFALVFKSVHFPGQAVGTRRGSPLLIGVRSEHKLSTDHIPILYRTARTQIGSKFTRWGSQGERGKDKKGSCNLSRVDSTTCLFPVEEKAVEYYFASDASAVIEHTNRVIFLEDDDVAAVVDGRLSIHRIKRTAGDHPGRAVQTLQMELQQIMKGNFSSFMQKEIFEQPESVVNTMRGRVNFDDYTVNLGGLKDHIKEIQRCRRLILIACGTSYHAGVATRQVLEELTELPVMVELASDFLDRNTPVFRDDVCFFLSQSGETADTLMGLRYCKERGALTVGITNTVGSSISRETDCGVHINAGPEIGVASTKAYTSQFVSLVMFALMMCDDRISMQERRKEIMLGLKRLPDLIKEVLSMDDEIQKLATELYHQKSVLIMGRGYHYATCLEGALKIKEITYMHSEGILAGELKHGPLALVDKLMPVIMIIMRDHTYAKCQNALQQVVARQGRPVVICDKEDTETIKNTKRTIKVPHSVDCLQGILSVIPLQLLAFHLAVLRGYDVDFPRNLAKSVTVE [GFPT1]	56.1 °C	56.2 °C	-0.226	-0.54	0.683	-0.169
MDRVTRYPILGIPQAHRGTGLVLDGDTSYTYHLVCMGPEASGWGQDEPQTWPTDHRAQQGVQRQGVSYSVHAYTGQPSPRGLHSENREDEGWQVYRLGARDAHQGRPTWALRPEDGEDKEMKTYRLDAGDADPRRLCDLERERWAVIQGQAVRKSSTVATLQGTPDHGDPRTPGPPRSTPLEENVVDREQIDFLAARQQFLSLEQANKGAPHSSPARGTPAGTTPGASQAPKAFNKPHLANGHVVPIKPQVKGVVREENKVRAVPTWASVQVVDDPGSLASVESPGTPKETPIEREIRLAQEREADLREQRGLRQATDHQELVEIPTRPLLTKLSLITAPRRERGRPSLYVQRDIVQETQREEDHRREGLHVGRASTPDWVSEGPQPGLRRALSSDSILSPAPDARAADPAPEVRKVNRIPPDAYQPYLSPGTPQLEFSAFGAFGKPSSLSTAEAKAATSPKATMSPRHLSESSGKPLSTKQEASKPPRGCPQANRGVVRWEYFRLRPLRFRAPDEPQQAQVPHVWGWEVAGAPALRLQKSQSSDLLERERESVLRREQEVAEERRNALFPEVFSPTPDENSDQNSRSSSQASGITGSYSVSESPFFSPIHLHSNVAWTVEDPVDSAPPGQRKKEQWYAGINPSDGINSEVLEAIRVTRHKNAMAERWESRIYASEEDD [MISP]		51.9 °C	1.38	-1.21	-1.86	-2.09
MDMKRRIHLELRNRTPAAVRELVLDNCKSNDGKIEGLTAEFVNLEFLSLINVGLISVSNLPKLPKLKKLELSENRIFGGLDMLAEKLPNLTHLNLSGNKLKDISTLEPLKKLECLKSLDLFNCEVTNLNDYRESVFKLLPQLTYLDGYDREDQEAPDSDAEVDGVDEEEEDEEGEDEEDEDDEDGEEEEFDEEDDEDEDVEGDEDDDEVSEEEEEFGLDEEDEDEDEDEEEEEGGKGEKRKRETDDEGEDD [ANP32B]	48.5 °C	53.3 °C	0.205	2.33	3.78	-0.0836
